System: MS2 coat protein
Test: apparent KD of MS2 coat protein; higher = weaker reporter binding
Details: Eterna round: R107
Protocol: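 RNA-MaP round R107: designed RNA switches with theophylline, tryptophan, arginine or FMN aptamers are transcribed on-chip within common flanks. They are titrated with SNAP-549-labelled MS2 coat protein in RNA-MaP buffer (100 mM Tris pH 7.5, 80 mM KCl, 4 mM MgCl2), without ligand or with the indicated ligand. Median apparent KD per design.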

[1] = input ligand: theophylline 20 uM
[2] = input ligand: tryptophan 2.4 mM
[3] = input ligand: theophylline 2 mM

Sequence | apparent KD of MS2 coat protein (input ligand: arginine 13.2 mM) [nM] | apparent KD of MS2 coat protein [1] [nM] | apparent KD of MS2 coat protein [2] [nM] | apparent KD of MS2 coat protein (input ligand: none) [nM] | apparent KD of MS2 coat protein [3] [nM]
UGUAACAUGAGGAUCACCCAUGUAAGUGAUACCAGAUAAGUAGUAGUCCCUUGGCAGCAUAUUGGGCGAGUGUAUAGUCUAUACG [Same State - Theophylline A (Freestyle 7)] | 39.9 | 69.8 | 49.7 |  | 
UAAUAAUUGUGAUUCUCAGGUCCUCGAUAACGAGGACCGGUACGGCCGCCACUCGAACAUGAGGAUCACCCAUGUAUGAGGACCU [M'-T'-T-MS2-T'' - Design 3] | 13.8 | 21 | 13.8 | 15.9 | 19.6
UCGGACAUGAGGAUCACCCAUGUAAAUCCUCGAGGACCGGUACGGCCGCCACUCGAACGAGUGGCGCGCGAGCGCGCGCUCGCGC [aGa] | 20.4 | 67.7 | 36.9 | 43.8 | 62.5
ACAUGAGGACCGGAUACCAGCCACACAACAUGAGGAUCACCCAUGUCCCAUGUAUGAGGAGGCCCUUGGCAGCCGACAUACAUGA [Exclusion - Theophylline B #1] | 48.2 | 157 | 78.1 | 77.3 | 398
GUCAGUAGAACAGAUACCAGUCAAAGGCUGUGAUCUCAUAACAUGAGGAUCACCCAUGUUGACCCUUGGCAGCUGUGGGCGAGGG [#20 Exclusion-TheophyllineB] | 26 | 77.8 | 43.7 |  | 
GAUAUUUGAAAACAAAUAUCAGUGGGUGAACGAGGACCGGUACGGCCGCCACUCGGACAUGAGGAUCACCCAUGUCCAUGUGAAA [AstrosExyTryA#7] | 13.9 | 18.2 |  |  | 17.6
CCUAUCCAGUCGGCCGCCACUGAAAACAGUGGGUGAACAUGAGGAUCACCCAUGUCGGAAUACCGCAGGACCGGGACUGUAUAGG [Ex Tryptophan B 23] | 162 | 393 | 574 | 143 | 1220
UGUACCAUGUCGGCCGCCACUCAUGAUAAGCAUGAGGAUCACCCAUGUAGCGUCAAAGACGCUAUGAGGACCGGGACAUGGUACU [TryBS Zipper 2] | 34.3 | 47.1 | 13.2 | 34.7 | 41.2
GCACCAGGUACGGAUACCAGAGCAAGCCAAAUGAGUGAACAUGAGGAUCACCCAUGUUUGCUCCCUUGGCAGCCGUACCUGGUGC [ETB NP+V+V2 #11 +-Same Structure] | 7.91 | 12.2 | 9.35 |  | 
GCUAGUGGCAGAAGGAGCGGCAUACUUGCAAGUGACAUGAGGAUCACCCAUGUAAGGGAAUGCCAGGUAGGUCGCUGCCACUAGC [EAB NP+V+V2 #1 +-Same Structure] | 34.9 | 54.5 | 28.5 | 31.7 | 38.7
GGACUAACCAGAAGGAGCGACACGCAGAAACUGCAAUUUCCUCCGCACGAGGAUCACCCGUGUCAGGUAGGUCGCUGGUUAGUCG | 20.6 | 35.1 | 21.1 | 22.1 | 25.8
GGGAAAUGAAUAGAAUGAGAUGACACAGAAGGAGCGCGGAUUAACGCAGGUAGGUCGCUGACAACAUGAGGAUCACCCAUGUUUC [#10 Same State - Arginine A] | 13.7 | 17.6 | 14.1 | 14.2 | 18
UUACACAUCUCGGCCGCCACUGGCUUCAAAAUAAUGUGUACAUGAGGAUCACCCAUGUCCGAGCUCAGGACCGGGAGCAAAGAAG [SS Tryp B #14] | 21.1 | 29.2 |  |  | 28.4
CUCGGGUUAUCAGAUACCAGACUAAAAUUUACAUGAGGAUCACCCAUGUAAUGGGUGAUAGUCCCUUGGCAGCUGUUAUGUUUAA [JR_ExcTheophyB_Sub001] | 65 | 85.4 | 70.8 |  | 
CCUUUGUAGCGAAGGAGCGCGUGACUUAGCUCAUGUAAACAUGAGGAUCACCCAUGUGACACGCAGGUAGGUCGCGCUAUGAAGG [Arg B Ex t3] | 22.2 | 28.7 | 21.9 | 22.3 | 23.5
GCUAGGUCAUCGGCCGCCACUAACGACGGCUCCAACAUGAGGAUCACCCAUGUGCCACAUGCGCAUAGGACCGGGAUGACCUAGC [SSTB NP+V+V2 #4] | 25.6 | 55 | 14.6 | 36.9 | 45
AUUAUAGUUUAUAAGGAAAUUGAAACAGAAGGAGCGUGAGUAAUCACAGGUAGGUCGCUGGUAGUACAUGAGGAUCACCCAUGUU [JR_Nu_SSArginiA_Sub019] | 21.9 | 32.2 | 22.4 | 24.1 | 26.5
AUGCACAUCUAGGAUACCAGCACCCUUAUGUCACUAGUUAACAUGAGGAUCACCCAUGUUUGCCCUUGGCAGCCUCAUUGACCAU [theeternabot_exclusion_MS2_Theo_B_9] | 59.5 | 92.7 | 59.7 |  | 
CCUCAGCAAUUGGAUACCAGUACAUCGUAAGACAUGAGGAUCACCCAUGUGGGCUUGACAUACCCUUGGCAGCCAUCCUUGAUCC [theeternabot_sameState_MS2_Theo_B_3] | 101 |  | 250 |  | 

Sequence | apparent KD of MS2 coat protein (input ligand: arginine 13.2 mM) [nM] | apparent KD of MS2 coat protein [1] [nM] | apparent KD of MS2 coat protein [2] [nM] | apparent KD of MS2 coat protein (input ligand: none) [nM] | apparent KD of MS2 coat protein [3] [nM]
UGAUGGUGCUGAAGGAGCGUGUAAGAACAAGAACAUGAGGAUCACCCAUGUAUUAAUUUAACGCAGGUAGGUCGCGGUGUUAUUG [11.M] | 22.4 | 30.7 | 18.6 | 20.2 | 22.4
ACGUCCAGGUUAAUCGUGGGCAUGGUCGAUACCAGUAUUUUAAUCUACCCUUGGCAGCGACAUGAGGAUCACCCAUGUGCGAUGA [XTheo A #16] | 13.8 | 17.9 | 16.9 | 16.4 | 40.1
CCCAGUCAUAACAAAGGAAAUAUACUCGAAGGAGCGUCAUAGUAGGCAGGUAGGUCGCGAGACAUGAGGAUCACCCAUGUAGAGA [swwvmullin] | 21.5 | 72 | 57.8 | 47.5 | 75.1
GUCCACAGCCGAAGGAGCGCUAGAAGAUGACAUGAGGAUCACCCAUGUGUGUGAUGUGGCUAGCAGGUAGGUCGCGGAGUGGAUU [Exclusion - Arginine B (Freestyle 14)] | 20.5 | 30.3 | 19.6 | 21.7 | 24.8
UGACAUUGCUCAGAUACCAGACAUGAGCAUCAGCCAUGUACCAAGAGUACAUAUUAAAAUGUCCCUUGGCAGCUGAGCAAUGUCU [Mod of Eli's TheoBX5 #AlternateMS2 v1] | 15.2 | 18.7 | 11.8 | 11 | 166
AGCCAUGGAAACAUGGCGGCGGCAUGAGCGCGAGGACCGGUACGGCCGCCACUCGGGCAACAUGAGGAUCACCCAUGUUCCUCAU [ETA NP+V+V2 #20 +-Same Structure] | 62.5 | 140 | 363 | 101 | 158
AUAAAUAAAACCGAUACCAGCCUUAUACAUGAGGAUCACCCAUGUUAUGCUUCCUUUUUUGGCCCUUGGCAGCGGAAAUGGGUAA [AstrosSSTheB#1] | 45.3 | 74.4 | 75.6 |  | 
UGUAUGGACUGAAGGAGCGGUAGAUAGCUUGAGGAUCACCCAAGUAAUAAGGCGAAAGCCUACCAGGUAGGUCGCAGUCCAUACU | 28 | 30.8 | 27.9 | 25.4 | 26.9
AACCGAGGCUAUCCUCUCCGACUAUGUGAUACCAGAAUAAUUUUAUUCCCUUGGCAGCAUGACAUGAGGAUCACCCAUGUCUCUU [SSTheo A #10] | 16 | 18 | 15.9 |  | 
UCGCUCUGGGUGAGAUCCGGAGAUGUGGAAGGAGCGCUGGUUCCAGCAGGUAGGUCGCCAACGGACAUGAGGAUCACCCAUGUAC [Same State - Arginine A (Freestyle 13)] | 39.2 | 63.1 | 45.9 | 51.7 | 70.4
GGACUAACCAGAAGGAGCGACGCGCAGAAACUGCAAAAUCCUCCACACGAGGAUCACCCGUGUCAGGUAGGUCGCUGGUUAGUCG [ArgXB 16 #CuTurnoff #MS2Left #StaticStem #Blueprint] | 30.2 | 36.1 | 31.3 | 26.6 | 27.2
GGAUAGGACACGGCCGCCACUUGCUAGGAUACUAGCAACAUUUCCUCUCAUGAGGAUCACCCAUGAAGGACCGGGUGUCCUAUCG | 21.3 | 30.6 | 27.3 |  | 23.3
GACAGACGAGGAAGGAGCGACAUGAGGAUCACCCAUGUUGCGGGUUUAAGGUGAACUAAGUGUCAGGUAGGUCGCCUCGCUUUUA [Diatbeat] | 35.7 | 56.5 | 36.3 | 41.2 | 49.3
AUAAUAAAGUCGGCCGCCACUAUAAACAUGAGGAACAUGAGGAUCACCCAUGUAUGAGGAUCACCUAGGACCGGGACAAAUAUUA [AstrosExyTryB#3] | 47.3 | 88.3 | 54.7 | 57.3 | 63.1
AGUAGACACGCGGCCGCCACUUGAGGAUCACCCAAGUGGUGUGUACUUGAAAACAAGUGCACAUCAAGGACCGGGCGUGUCUACA [Omei Tryp B SS D v3] | 7.19 | 8.01 | 8.54 | 7.05 | 7.12
GCGAACGGACCGUUGCCUUCCUGUGUGCGGCGAGGACCGGUACGGCCGCCACUCGACUGCGUACAUGAGGAUCACCCAUGUUAGA [theeternabot_exclusion_MS2_Trp_A_16] | 41.2 | 40.2 |  |  | 31.8
GGAAAAUAUAGGGAUACCAGAUAUGGCGUUGACAUGAGGAUCACCCAUGUCUUAGCAGUGAUCCCUUGGCAGCCCACACCAUCCG [theeternabot_sameState_MS2_Theo_B_13] | 40.9 | 61.3 | 64.5 |  | 
CGAUAUAAGACGGCCGCCACUAUUAAGUAUCAAAAUAAACAUGAGGAUCACCCAUGUACAUGGGAUAGGACCGGGUCCAAUAACG [A2] | 40.7 | 123 | 70.2 | 128 | 208
GGGCGCUAUCCCGCGAGGGAUAGCGUUCAACGAGGACCGGUACGGCCGCCACUCGAACGAGUGGUGACAUGAGGAUCACCCAUGU [Iaa] | 39.9 | 66.4 | 56.4 | 42.5 | 53.3

— the supplement of paper PMC9170038
